Source: patent CN112300289A (UNIV CHINA PHARMA, dated 2021)

B1: RGD4C融合抗TNFα纳米抗体 N端-VHH-Linker-RGD4C-6HIS-C端 (VHH)
VHH: QVQLVESGGGLVQAGGSLRLSCTASGQTSSTADMGWFRQPPGKGREFVARISGIDGTTYYDEPVKGRFTISRDKAQNTVYLQMDSLKPEDTAVYYCRSPRYADQWSAYDYWGQGTQVTVSS
notes: also called V-L-R-H; RGD4C-anti-TNFα-Nanobody
B2: RGD4C融合抗TNFα纳米抗体 N端-VHH-6HIS-Linker-RGD4C-C端 (VHH)
VHH: B1 VHH
B3: RGD4C融合抗TNFα纳米抗体 N端-RGD4C-Linker-6HIS-VHH-C端 (VHH)
VHH: B1 VHH

How the values were obtained:
TNFα = assay: cell-based or functional assay
整合素αvβ3 = target: T1, 整合素αvβ3 (human, UniProt P06756 31-1048; P05106 27-788); assay: concluded from the MDA-MB-231 cell adhesion assay; no direct binding assay
T1 construct: whole, on cells; The adhesion assay used whole MDA-MB-231 cells; also called 整合素αvβ3受体; 玻连蛋白(Vitronectin,VN)受体
T1 sequence (P06756 31-1048, chain 1 of 2): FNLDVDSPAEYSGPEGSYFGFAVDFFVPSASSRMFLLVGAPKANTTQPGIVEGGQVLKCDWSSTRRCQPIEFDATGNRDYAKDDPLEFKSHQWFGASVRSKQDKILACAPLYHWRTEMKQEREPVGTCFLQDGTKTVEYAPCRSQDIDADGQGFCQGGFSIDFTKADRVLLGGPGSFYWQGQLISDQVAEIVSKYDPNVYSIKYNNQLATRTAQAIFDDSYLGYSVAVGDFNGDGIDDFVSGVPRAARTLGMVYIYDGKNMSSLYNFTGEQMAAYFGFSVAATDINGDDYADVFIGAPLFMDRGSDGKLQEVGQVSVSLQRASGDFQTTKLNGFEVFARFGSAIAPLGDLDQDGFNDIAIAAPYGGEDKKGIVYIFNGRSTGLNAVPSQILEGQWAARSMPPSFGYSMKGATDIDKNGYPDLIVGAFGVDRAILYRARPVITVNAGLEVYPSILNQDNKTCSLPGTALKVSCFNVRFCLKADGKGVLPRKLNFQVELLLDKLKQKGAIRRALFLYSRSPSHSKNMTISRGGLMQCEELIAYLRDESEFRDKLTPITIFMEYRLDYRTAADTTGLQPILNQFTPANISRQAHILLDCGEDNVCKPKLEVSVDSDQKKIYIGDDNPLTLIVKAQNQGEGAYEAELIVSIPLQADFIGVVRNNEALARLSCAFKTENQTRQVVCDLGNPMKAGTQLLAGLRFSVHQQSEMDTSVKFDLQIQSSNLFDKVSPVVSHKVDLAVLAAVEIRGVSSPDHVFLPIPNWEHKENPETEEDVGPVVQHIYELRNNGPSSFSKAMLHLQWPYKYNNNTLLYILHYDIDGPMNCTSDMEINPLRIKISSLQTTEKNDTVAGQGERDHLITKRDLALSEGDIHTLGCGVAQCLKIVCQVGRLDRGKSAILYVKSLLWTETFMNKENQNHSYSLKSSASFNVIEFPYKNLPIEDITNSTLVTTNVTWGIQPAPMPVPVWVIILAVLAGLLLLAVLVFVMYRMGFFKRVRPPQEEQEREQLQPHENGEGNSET
T1 sequence (P05106 27-788, chain 2 of 2): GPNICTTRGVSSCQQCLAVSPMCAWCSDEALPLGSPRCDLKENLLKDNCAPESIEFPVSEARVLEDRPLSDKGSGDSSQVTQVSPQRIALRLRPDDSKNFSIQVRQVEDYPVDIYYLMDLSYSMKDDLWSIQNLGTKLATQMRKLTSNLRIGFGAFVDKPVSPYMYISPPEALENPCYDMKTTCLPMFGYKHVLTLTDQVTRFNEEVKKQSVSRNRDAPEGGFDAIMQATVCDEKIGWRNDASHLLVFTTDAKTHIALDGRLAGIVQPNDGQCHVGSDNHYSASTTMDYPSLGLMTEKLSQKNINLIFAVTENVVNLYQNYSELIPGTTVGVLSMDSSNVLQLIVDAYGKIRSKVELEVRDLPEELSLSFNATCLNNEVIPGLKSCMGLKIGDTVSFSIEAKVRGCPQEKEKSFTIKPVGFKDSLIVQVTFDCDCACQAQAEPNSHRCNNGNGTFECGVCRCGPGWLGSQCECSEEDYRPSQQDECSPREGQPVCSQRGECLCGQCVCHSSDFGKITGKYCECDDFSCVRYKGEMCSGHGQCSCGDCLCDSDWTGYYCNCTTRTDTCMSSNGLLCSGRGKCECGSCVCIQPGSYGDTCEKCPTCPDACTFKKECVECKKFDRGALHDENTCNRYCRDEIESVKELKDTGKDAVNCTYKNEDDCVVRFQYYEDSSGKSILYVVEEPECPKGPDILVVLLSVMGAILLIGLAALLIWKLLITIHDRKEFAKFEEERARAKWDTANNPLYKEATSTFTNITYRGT

Chain of TNFα (P01375 77-233): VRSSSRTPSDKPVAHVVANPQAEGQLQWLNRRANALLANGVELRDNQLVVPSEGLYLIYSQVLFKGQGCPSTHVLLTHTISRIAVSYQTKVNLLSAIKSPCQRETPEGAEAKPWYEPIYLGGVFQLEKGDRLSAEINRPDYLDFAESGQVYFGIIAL

Binder	IC50, inhibition of TNFα cytotoxicity on L929 cells (MTT) (TNFα) [nM]	binding result (整合素αvβ3)
B1	0.106	binds
B2	0.113	–
B3	0.187	–
